Experimental data published in US20250152730A1, “ANTI-TM4SF1 ANTIBODY-DRUG CONJUGATES COMPRISING CLEAVABLE LINKERS AND METHODS OF USING SAME” (Angiex, Inc., priority 2022, published 2025).

T1: human TM4SF1 (transmembrane-4 L six family member-1) on HUVEC cells (UniProt P30408 1-202)
T1 chain: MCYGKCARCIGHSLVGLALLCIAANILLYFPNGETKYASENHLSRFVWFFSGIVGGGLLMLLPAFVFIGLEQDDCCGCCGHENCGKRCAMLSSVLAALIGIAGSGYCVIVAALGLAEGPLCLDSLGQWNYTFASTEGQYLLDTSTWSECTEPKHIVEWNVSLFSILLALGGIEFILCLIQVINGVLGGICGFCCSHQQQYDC

B1: AGX-A07 variant comprising Fc region mutation N297C (antibody, V domains shown)
VH: QIQLVQSGPELKKPGETVKISCKASGYTFTNYGVKWVKQAPGKDLKWMGWINTYTGNPIYAADFKGRFAFSLETSASTAFLQINNLKNEDTATYFCVRFQYGDYRYFDVWGAGTTVTVSS
VL: QIILSQSPAILSASPGEKVTMTCRANSGISFINWYQQKPGSSPKPWIYGTANLASGVPARFGGSGSGTSYSLTISRVEAEDAATYYCQQWSSNPLTFGAGTKLELR
B2: AGX-A07 variant comprising Fc region mutations N297C, M252Y, S254T and T256E (antibody, V domains shown)
VH: QIQLVQSGPELKKPGETVKISCKASGYTFTNYGVKWVKQAPGKDLKWMGWINTYTGNPIYAADFKGRFAFSLETSASTAFLQINNLKNEDTATYFCVRFQYGDYRYFDVWGAGTTVTVSS
VL: QIILSQSPAILSASPGEKVTMTCRANSGISFINWYQQKPGSSPKPWIYGTANLASGVPARFGGSGSGTSYSLTISRVEAEDAATYYCQQWSSNPLTFGAGTKLELR
B3: AGX-A07 anti-TM4SF1 antibody (without Fc region mutations) (antibody, V domains shown)
VH: QIQLVQSGPELKKPGETVKISCKASGYTFTNYGVKWVKQAPGKDLKWMGWINTYTGNPIYAADFKGRFAFSLETSASTAFLQINNLKNEDTATYFCVRFQYGDYRYFDVWGAGTTVTVSS
VL: QIILSQSPAILSASPGEKVTMTCRANSGISFINWYQQKPGSSPKPWIYGTANLASGVPARFGGSGSGTSYSLTISRVEAEDAATYYCQQWSSNPLTFGAGTKLELR
B4: A07-wt: AGX-A07 anti-TM4SF1 antibody without Fc region mutations (antibody, V domains shown)
VH: QIQLVQSGPELKKPGETVKISCKASGYTFTNYGVKWVKQAPGKDLKWMGWINTYTGNPIYAADFKGRFAFSLETSASTAFLQINNLKNEDTATYFCVRFQYGDYRYFDVWGAGTTVTVSS
VL: QIILSQSPAILSASPGEKVTMTCRANSGISFINWYQQKPGSSPKPWIYGTANLASGVPARFGGSGSGTSYSLTISRVEAEDAATYYCQQWSSNPLTFGAGTKLELR
B5: A07C: AGX-A07 anti-TM4SF1 antibody with Fc region mutation N297C (the “C” variant) (antibody, V domains shown)
VH: QIQLVQSGPELKKPGETVKISCKASGYTFTNYGVKWVKQAPGKDLKWMGWINTYTGNPIYAADFKGRFAFSLETSASTAFLQINNLKNEDTATYFCVRFQYGDYRYFDVWGAGTTVTVSS
VL: QIILSQSPAILSASPGEKVTMTCRANSGISFINWYQQKPGSSPKPWIYGTANLASGVPARFGGSGSGTSYSLTISRVEAEDAATYYCQQWSSNPLTFGAGTKLELR
B6: A07-YTEC: AGX-A07 with N297C in combination with M252Y, S254T, and T256E (the “YTEC” variant) (antibody, V domains shown)
VH: QIQLVQSGPELKKPGETVKISCKASGYTFTNYGVKWVKQAPGKDLKWMGWINTYTGNPIYAADFKGRFAFSLETSASTAFLQINNLKNEDTATYFCVRFQYGDYRYFDVWGAGTTVTVSS
VL: QIILSQSPAILSASPGEKVTMTCRANSGISFINWYQQKPGSSPKPWIYGTANLASGVPARFGGSGSGTSYSLTISRVEAEDAATYYCQQWSSNPLTFGAGTKLELR

How the values were obtained:
[1] = in vivo; cited from earlier work
[2] = metabolite of trastuzumab emtansine (Kadcyla); every 2 weeks; cited from earlier work
HUVEC (endothelial cell) = experiment: In vitro cell proliferation inhibition (killing) assay, HUVEC; assay type: cell-based, human; details: 5 days incubation
Experimental: Cells are incubated with antibody conjugate at various concentrations. The concentrations evaluated include a control, and five-fold dilution starting from 333.335 nM (333.335 nM, 66.667 nM, 13.334 nM, 2.667 nM, 0.533 nM (533.3360 pM), 106.6672 pM, 21.3334 pM, 4.2667 pM. Briefly, cells are seeded into 96-well plates a day before the antibody conjugates are added, whereupon cell viability is measured by PrestoBlue (ThermoFisher Scientific) through a plate reader (Varioskan™ LUX multimode microplate reader) five days after treatment with serial dilutions of the antibody conjugates. Cells are treated with media only or isotype matched control antibodies, as a negative control. The EC50 values are generated via GraphPad.
The effects of antibody drug-conjugates (drug to antibody ratio (DAR) varying from 1.8 to 4.2) containing a drug (maytansine) were assessed in cultured mouse (MS1) and human (HUVEC, A549, MiaPaCa2 and SKOV3) cells. Characteristics of the Exemplary Antibodies 1-5, each of which contains human IgG1 constant region with YTEC mutation, can be found in Table 3A. Cells were incubated for 5 days with the antibody drug conjugate before assessing cell viability on day 5.

[3] = biological target: T1, human TM4SF1 (transmembrane-4 L six …); experiment: flow cytometry cell binding; HUVEC cells
[4] = Hydrophobicity by hydrophobic interaction chromatography (HIC); assay type: physicochemical; design: unit not given here; details: for Hydrophobicity (HIC), Average: average of 3 runs
Experimental: The hydrophobicity of exemplary anti-TM4SF1 antibodies, and their Fc mutation containing variants were assessed in this study, using hydrophobic interaction chromatography. The tested antibodies were AGX-A07 (the “wt,” “C,” and “YTEC”); MS (the “wt,” “C,” and “YTEC”). An anti-Her2 antibody with an Fc mutation was used as a control. Both in case of AGX-A07 and the murine surrogate anti-TM4SF1 antibody, it was observed that the hydrophobicity increased with the “C” and “YTEC” mutations.

Molecule | EC50 [3] [nM] | Hydrophobicity (HIC), Run 1 [4] | Hydrophobicity (HIC), Run 2 [4] | Hydrophobicity (HIC), Run 3 [4] | Hydrophobicity (HIC), Average [4] | also measured
COc1ccc(/C=C\c2cc(OC)c(OC)c(OC)c2)cc1OP(=O)(O)O [CA4P, Combretastatin] | – | – | – | – | – | Patients who experienced heart attacks while being treated [1]: seven
COc1cc2cc(c1Cl)N(C)C(=O)CC(O)C1(C)OC1C(C)C1CC(O)(NC(=O)O1)C(OC)/C=C/C=C(\C)C2 (stereo not drawn) [Maytansinol, maytansinol] | – | – | – | – | – | Found in plasma [2]: 7%
BrAc-Galactose-Sar-N-Me-Alanine-DM1 [Free LP] | – | – | – | – | – | EC50 (HUVEC (endothelial cell)): 906 nM
B1 | 2.3 | – | – | – | – | –
B2 | 1.75 | – | – | – | – | –
B3 | 2.16 | – | – | – | – | –
B4 | – | 5.547 | 5.523 | 5.568 | 5.55 | –
B5 | – | 5.614 | 5.591 | 5.606 | 5.60 | –
B6 | – | 5.781 | 5.77 | 5.888 | 5.81 | –
